In the supplement of paper PMC10567573:

B1: KRT33B (parent)
chain: PAVDLNQVLNETRNQYEALVETNR

Variants of: B1
Assay: protein stability index of a GFP-peptide fusion (GPS, HEK-293T) (PSI 1-6); higher = more stable
Settings: c terminus: a fixed tail appended
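Further: lentivirally expressed fusions sorted by FACS into six bins by GFP to DsRed ratio, PSI derived from sequencing read proportions per bin multiplied by bin number.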

Variant	protein stability index
PAVDLSQVLNETRNQYEALVETNR [N6S]	3.54
PAVDLMQVLNETRNQYEALVETNR [N6M]	1.34
PAVDLTQVLNETRNQYEALVETNR [N6T]	3.43
PAVDLYQVLNETRNQYEALVETNR [N6Y]	2.64
PAVDLPQVLNETRNQYEALVETNR [N6P]	4.33
PAVDLHQVLNETRNQYEALVETNR [N6H]	2.97
PAVDLLQVLNETRNQYEALVETNR [N6L]	1.71
PAVDLCQVLNETRNQYEALVETNR [N6C]	2.56
PAVDLDQVLNETRNQYEALVETNR [N6D]	2.8
PAVDLKQVLNETRNQYEALVETNR [N6K]	3.27
PAVDLGQVLNETRNQYEALVETNR [N6G]	4.3
PAVDLRQVLNETRNQYEALVETNR [N6R]	3.13
PAVDLQQVLNETRNQYEALVETNR [N6Q]	2.83
PAVDLEQVLNETRNQYEALVETNR [N6E]	1.97
PAVDLFQVLNETRNQYEALVETNR [N6F]	2.31
PAVDLAQVLNETRNQYEALVETNR [N6A]	2.77
PAVDLWQVLNETRNQYEALVETNR [N6W]	1.82
PAVDLIQVLNETRNQYEALVETNR [N6I]	2.05
PAVDLVQVLNETRNQYEALVETNR [N6V]	2.43
PHVDLNQVLNETRNQYEALVETNR [A2H]	3.93
PMVDLNQVLNETRNQYEALVETNR [A2M]	2.4
PYVDLNQVLNETRNQYEALVETNR [A2Y]	2.02
PRVDLNQVLNETRNQYEALVETNR [A2R]	3.57
PIVDLNQVLNETRNQYEALVETNR [A2I]	2.84

Variant	protein stability index
PNVDLNQVLNETRNQYEALVETNR [A2N]	4.4
PKVDLNQVLNETRNQYEALVETNR [A2K]	3.87
PSVDLNQVLNETRNQYEALVETNR [A2S]	3.23
PLVDLNQVLNETRNQYEALVETNR [A2L]	3.25
PVVDLNQVLNETRNQYEALVETNR [A2V]	3.11
PPVDLNQVLNETRNQYEALVETNR [A2P]	3.14
PFVDLNQVLNETRNQYEALVETNR [A2F]	2.39
PGVDLNQVLNETRNQYEALVETNR [A2G]	3.95
PDVDLNQVLNETRNQYEALVETNR [A2D]	4.82
PEVDLNQVLNETRNQYEALVETNR [A2E]	2.26
PCVDLNQVLNETRNQYEALVETNR [A2C]	2.87
PTVDLNQVLNETRNQYEALVETNR [A2T]	3.52
PQVDLNQVLNETRNQYEALVETNR [A2Q]	3.11
PWVDLNQVLNETRNQYEALVETNR [A2W]	1.59
PAVDLNQVMNETRNQYEALVETNR [L9M]	4.13
PAVDLNQVYNETRNQYEALVETNR [L9Y]	4.53
PAVDLNQVCNETRNQYEALVETNR [L9C]	4.91
PAVDLNQVFNETRNQYEALVETNR [L9F]	4.25
PAVDLNQVGNETRNQYEALVETNR [L9G]	4.76
PAVDLNQVTNETRNQYEALVETNR [L9T]	4.61
PAVDLNQVWNETRNQYEALVETNR [L9W]	4.32
PAVDLNQVRNETRNQYEALVETNR [L9R]	4.36
PAVDLNQVSNETRNQYEALVETNR [L9S]	4.96
PAVDLNQVNNETRNQYEALVETNR [L9N]	5.13

Variant	protein stability index
PAVDLNQVQNETRNQYEALVETNR [L9Q]	4.24
PAVDLNQVANETRNQYEALVETNR [L9A]	5.16
PAVDLNQVINETRNQYEALVETNR [L9I]	3.55
PAVDLNQVVNETRNQYEALVETNR [L9V]	4.65
PAVDLNQVKNETRNQYEALVETNR [L9K]	5.09
PAVDLNQVHNETRNQYEALVETNR [L9H]	4.2
PAVDLNQVENETRNQYEALVETNR [L9E]	4.93
PAVDLNQVDNETRNQYEALVETNR [L9D]	4.52
PAVDLNQVPNETRNQYEALVETNR [L9P]	4.72
KAVDLNQVLNETRNQYEALVETNR [P1K]	3.66
IAVDLNQVLNETRNQYEALVETNR [P1I]	2.69
NAVDLNQVLNETRNQYEALVETNR [P1N]	4.23
DAVDLNQVLNETRNQYEALVETNR [P1D]	4.32
YAVDLNQVLNETRNQYEALVETNR [P1Y]	3.33
SAVDLNQVLNETRNQYEALVETNR [P1S]	4.42
AAVDLNQVLNETRNQYEALVETNR [P1A]	3.25
EAVDLNQVLNETRNQYEALVETNR [P1E]	2.98
VAVDLNQVLNETRNQYEALVETNR [P1V]	3.15
RAVDLNQVLNETRNQYEALVETNR [P1R]	3.7
HAVDLNQVLNETRNQYEALVETNR [P1H]	4.02
WAVDLNQVLNETRNQYEALVETNR [P1W]	3.26
TAVDLNQVLNETRNQYEALVETNR [P1T]	3.72
QAVDLNQVLNETRNQYEALVETNR [P1Q]	3.26
FAVDLNQVLNETRNQYEALVETNR [P1F]	2.78

Variant	protein stability index
LAVDLNQVLNETRNQYEALVETNR [P1L]	3.46
GAVDLNQVLNETRNQYEALVETNR [P1G]	4.39
MAVDLNQVLNETRNQYEALVETNR [P1M]	3.71
CAVDLNQVLNETRNQYEALVETNR [P1C]	2.89
PAVDLNQRLNETRNQYEALVETNR [V8R]	4.93
PAVDLNQPLNETRNQYEALVETNR [V8P]	5.14
PAVDLNQWLNETRNQYEALVETNR [V8W]	3.42
PAVDLNQTLNETRNQYEALVETNR [V8T]	4.41
PAVDLNQCLNETRNQYEALVETNR [V8C]	3.71
PAVDLNQGLNETRNQYEALVETNR [V8G]	4.91
PAVDLNQNLNETRNQYEALVETNR [V8N]	4.83
PAVDLNQSLNETRNQYEALVETNR [V8S]	4.43
PAVDLNQILNETRNQYEALVETNR [V8I]	2.98
PAVDLNQDLNETRNQYEALVETNR [V8D]	4.77
PAVDLNQALNETRNQYEALVETNR [V8A]	3.84
PAVDLNQYLNETRNQYEALVETNR [V8Y]	2.49
PAVDLNQMLNETRNQYEALVETNR [V8M]	2.66
PAVDLNQQLNETRNQYEALVETNR [V8Q]	4.64
PAVDLNQLLNETRNQYEALVETNR [V8L]	1.45
PAVDLNQFLNETRNQYEALVETNR [V8F]	3.78
PAVDLNQHLNETRNQYEALVETNR [V8H]	4.05
PAVDLNQELNETRNQYEALVETNR [V8E]	4.7
PAVDLNQKLNETRNQYEALVETNR [V8K]	4.56
PAVDSNQVLNETRNQYEALVETNR [L5S]	4.78

Variant	protein stability index
PAVDMNQVLNETRNQYEALVETNR [L5M]	4
PAVDFNQVLNETRNQYEALVETNR [L5F]	3.38
PAVDINQVLNETRNQYEALVETNR [L5I]	3.47
PAVDVNQVLNETRNQYEALVETNR [L5V]	3.02
PAVDNNQVLNETRNQYEALVETNR [L5N]	5.02
PAVDPNQVLNETRNQYEALVETNR [L5P]	4.03
PAVDYNQVLNETRNQYEALVETNR [L5Y]	3.44
PAVDQNQVLNETRNQYEALVETNR [L5Q]	4.78
PAVDWNQVLNETRNQYEALVETNR [L5W]	2.52
PAVDHNQVLNETRNQYEALVETNR [L5H]	3.83
PAVDDNQVLNETRNQYEALVETNR [L5D]	4.64
PAVDRNQVLNETRNQYEALVETNR [L5R]	4.4
PAVDKNQVLNETRNQYEALVETNR [L5K]	4.79
PAVDENQVLNETRNQYEALVETNR [L5E]	4.53
PAVDTNQVLNETRNQYEALVETNR [L5T]	4.48
PAVDGNQVLNETRNQYEALVETNR [L5G]	5.15
PAVDCNQVLNETRNQYEALVETNR [L5C]	3.97
PAVDANQVLNETRNQYEALVETNR [L5A]	3.8
PAVSLNQVLNETRNQYEALVETNR [D4S]	2.74
PAVGLNQVLNETRNQYEALVETNR [D4G]	4.02
PAVILNQVLNETRNQYEALVETNR [D4I]	3.41
PAVWLNQVLNETRNQYEALVETNR [D4W]	2.64
PAVTLNQVLNETRNQYEALVETNR [D4T]	3.08
PAVKLNQVLNETRNQYEALVETNR [D4K]	4

Variant	protein stability index
PAVMLNQVLNETRNQYEALVETNR [D4M]	4.15
PAVHLNQVLNETRNQYEALVETNR [D4H]	4.22
PAVLLNQVLNETRNQYEALVETNR [D4L]	3.55
PAVPLNQVLNETRNQYEALVETNR [D4P]	3.74
PAVFLNQVLNETRNQYEALVETNR [D4F]	2.82
PAVELNQVLNETRNQYEALVETNR [D4E]	3.86
PAVCLNQVLNETRNQYEALVETNR [D4C]	3.88
PAVRLNQVLNETRNQYEALVETNR [D4R]	3.76
PAVNLNQVLNETRNQYEALVETNR [D4N]	4.46
PAVYLNQVLNETRNQYEALVETNR [D4Y]	3.44
PAVVLNQVLNETRNQYEALVETNR [D4V]	3.99
PAVALNQVLNETRNQYEALVETNR [D4A]	3.94
PAVQLNQVLNETRNQYEALVETNR [D4Q]	4.31
PAVDLNHVLNETRNQYEALVETNR [Q7H]	4.38
PAVDLNIVLNETRNQYEALVETNR [Q7I]	3.55
PAVDLNKVLNETRNQYEALVETNR [Q7K]	3.91
PAVDLNCVLNETRNQYEALVETNR [Q7C]	3.57
PAVDLNPVLNETRNQYEALVETNR [Q7P]	4.78
PAVDLNRVLNETRNQYEALVETNR [Q7R]	3.95
PAVDLNLVLNETRNQYEALVETNR [Q7L]	4.06
PAVDLNYVLNETRNQYEALVETNR [Q7Y]	3.83
PAVDLNGVLNETRNQYEALVETNR [Q7G]	4.59
PAVDLNEVLNETRNQYEALVETNR [Q7E]	3.11
PAVDLNVVLNETRNQYEALVETNR [Q7V]	3.86

Variant	protein stability index
PAVDLNWVLNETRNQYEALVETNR [Q7W]	4.22
PAVDLNMVLNETRNQYEALVETNR [Q7M]	4.24
PAVDLNSVLNETRNQYEALVETNR [Q7S]	4.01
PAVDLNTVLNETRNQYEALVETNR [Q7T]	2.97
PAVDLNNVLNETRNQYEALVETNR [Q7N]	4.33
PAVDLNAVLNETRNQYEALVETNR [Q7A]	3.27
PAVDLNFVLNETRNQYEALVETNR [Q7F]	3.79
PAVDLNDVLNETRNQYEALVETNR [Q7D]	3.73
PAPDLNQVLNETRNQYEALVETNR [V3P]	4.99
PAQDLNQVLNETRNQYEALVETNR [V3Q]	3.29
PARDLNQVLNETRNQYEALVETNR [V3R]	3.4
PAADLNQVLNETRNQYEALVETNR [V3A]	3.85
PADDLNQVLNETRNQYEALVETNR [V3D]	4.77
PANDLNQVLNETRNQYEALVETNR [V3N]	4.25
PAWDLNQVLNETRNQYEALVETNR [V3W]	4.12
PATDLNQVLNETRNQYEALVETNR [V3T]	3.87
PAHDLNQVLNETRNQYEALVETNR [V3H]	4.33
PAIDLNQVLNETRNQYEALVETNR [V3I]	3.77
PAGDLNQVLNETRNQYEALVETNR [V3G]	4.65
PAEDLNQVLNETRNQYEALVETNR [V3E]	4.05
PAYDLNQVLNETRNQYEALVETNR [V3Y]	3.56
PAFDLNQVLNETRNQYEALVETNR [V3F]	4.36
PAMDLNQVLNETRNQYEALVETNR [V3M]	2.7
PAKDLNQVLNETRNQYEALVETNR [V3K]	3.83

Variant	protein stability index
PACDLNQVLNETRNQYEALVETNR [V3C]	2.81
PASDLNQVLNETRNQYEALVETNR [V3S]	3.64
PAVDLNQVLLETRNQYEALVETNR [N10L]	2.56
PAVDLNQVLKETRNQYEALVETNR [N10K]	2.74
PAVDLNQVLEETRNQYEALVETNR [N10E]	2.09
PAVDLNQVLAETRNQYEALVETNR [N10A]	2.98
PAVDLNQVLTETRNQYEALVETNR [N10T]	2.67
PAVDLNQVLVETRNQYEALVETNR [N10V]	3.22
PAVDLNQVLSETRNQYEALVETNR [N10S]	3.31
PAVDLNQVLIETRNQYEALVETNR [N10I]	2.64
PAVDLNQVLCETRNQYEALVETNR [N10C]	3.59
PAVDLNQVLRETRNQYEALVETNR [N10R]	2.76
PAVDLNQVLGETRNQYEALVETNR [N10G]	4.34
PAVDLNQVLMETRNQYEALVETNR [N10M]	2.23
PAVDLNQVLDETRNQYEALVETNR [N10D]	3.3
PAVDLNQVLFETRNQYEALVETNR [N10F]	2.44
PAVDLNQVLPETRNQYEALVETNR [N10P]	4.84
PAVDLNQVLHETRNQYEALVETNR [N10H]	3.74
PAVDLNQVLWETRNQYEALVETNR [N10W]	2.37
PAVDLNQVLQETRNQYEALVETNR [N10Q]	2.58
